# In the supplement of paper PMC9112550, “Optimization of the antimicrobial peptide Bac7 by deep mutational scanning” (BMC Biology, 2022):
# Test system: Escherichia coli TOP10
# Test: shrunken log2 fold change of peptide-encoding DNA abundance (4.5 h post-induction vs induction); higher = less antimicrobial activity (less host growth inhibition)
# Conditions: time post-induction: 4.5 h; library: site-saturation at positions 5, 18, 19, 20
# 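Further: peptides expressed intracellularly from a pBAD plasmid library in pooled LB shake-flask culture, induced with 0.3% L-arabinose, DNA abundance read by NGS, three biological replicates, DESeq2 with apeglm shrinkage.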
row,Sequence,shrunken log2 fold change
1,RRIRFRPPRLPRPRPRPQHQPRP,-0.185
2,RRIRFRPPRLPRPRPRPQIRPRP,-0.231
3,RRIRFRPPRLPRPRPRPQKVPRP,-0.194
4,RRIRFRPPRLPRPRPRPQLGPRP,0.1
5,RRIRFRPPRLPRPRPRPQMFPRP,-0.103
6,RRIRFRPPRLPRPRPRPQMPPRP,-0.107
7,RRIRFRPPRLPRPRPRPQMSPRP,-0.204
8,RRIRFRPPRLPRPRPRPQNHPRP,-0.619
9,RRIRFRPPRLPRPRPRPQQVPRP,0.0179
10,RRIRFRPPRLPRPRPRPQRIPRP,-0.695
11,RRIRFRPPRLPRPRPRPQSFPRP,0.00824
12,RRIRFRPPRLPRPRPRPQSHPRP,-0.243
13,RRIRFRPPRLPRPRPRPQSLPRP,-0.274
14,RRIRFRPPRLPRPRPRPQTHPRP,-0.151
15,RRIRFRPPRLPRPRPRPQYGPRP,-0.0328
16,RRIRFRPPRLPRPRPRPQYLPRP,-0.329
17,RRIRFRPPRLPRPRPRPRAMPRP,0.241
18,RRIRFRPPRLPRPRPRPRASPRP,0.33
19,RRIRFRPPRLPRPRPRPRAWPRP,0.409
20,RRIRFRPPRLPRPRPRPRDHPRP,0.015
21,RRIRFRPPRLPRPRPRPREMPRP,0.286
22,RRIRFRPPRLPRPRPRPRFGPRP,-0.0656
23,RRIRFRPPRLPRPRPRPRGNPRP,-0.0828
24,RRIRFRPPRLPRPRPRPRIFPRP,-0.102
25,RRIRFRPPRLPRPRPRPRIHPRP,-0.262

row,Sequence,shrunken log2 fold change
1,RRIRFRPPRLPRPRPRPRIPPRP,-0.0955
2,RRIRFRPPRLPRPRPRPRKYPRP,-0.177
3,RRIRFRPPRLPRPRPRPRLAPRP,0.69
4,RRIRFRPPRLPRPRPRPRLEPRP,0.392
5,RRIRFRPPRLPRPRPRPRLKPRP,0.0563
6,RRIRFRPPRLPRPRPRPRNVPRP,-0.372
7,RRIRFRPPRLPRPRPRPRPSPRP,0.433
8,RRIRFRPPRLPRPRPRPRPTPRP,0.732
9,RRIRFRPPRLPRPRPRPRQCPRP,-0.123
10,RRIRFRPPRLPRPRPRPRQLPRP,-0.0618
11,RRIRFRPPRLPRPRPRPRSAPRP,0.379
12,RRIRFRPPRLPRPRPRPRSPPRP,1.06
13,RRIRFRPPRLPRPRPRPRSQPRP,-0.105
14,RRIRFRPPRLPRPRPRPRTGPRP,0.0905
15,RRIRFRPPRLPRPRPRPRTSPRP,0.223
16,RRIRFRPPRLPRPRPRPRWYPRP,-0.351
17,RRIRFRPPRLPRPRPRPRYLPRP,-0.0779
18,RRIRFRPPRLPRPRPRPRYRPRP,-0.4
19,RRIRFRPPRLPRPRPRPRYVPRP,-0.105
20,RRIRFRPPRLPRPRPRPRYWPRP,-0.0206
21,RRIRFRPPRLPRPRPRPSAIPRP,-0.304
22,RRIRFRPPRLPRPRPRPSDSPRP,-0.21
23,RRIRFRPPRLPRPRPRPSFAPRP,-0.156
24,RRIRFRPPRLPRPRPRPSGYPRP,0.00547
25,RRIRFRPPRLPRPRPRPSHGPRP,-0.391

row,Sequence,shrunken log2 fold change
1,RRIRFRPPRLPRPRPRPSHHPRP,-0.534
2,RRIRFRPPRLPRPRPRPSINPRP,-0.625
3,RRIRFRPPRLPRPRPRPSKTPRP,0.0514
4,RRIRFRPPRLPRPRPRPSLEPRP,-0.0776
5,RRIRFRPPRLPRPRPRPSLTPRP,-0.413
6,RRIRFRPPRLPRPRPRPSMIPRP,-0.603
7,RRIRFRPPRLPRPRPRPSMPPRP,-0.331
8,RRIRFRPPRLPRPRPRPSPAPRP,0.176
9,RRIRFRPPRLPRPRPRPSPLPRP,-0.0981
10,RRIRFRPPRLPRPRPRPSQAPRP,-0.0595
11,RRIRFRPPRLPRPRPRPSQHPRP,-0.612
12,RRIRFRPPRLPRPRPRPSQKPRP,-0.0426
13,RRIRFRPPRLPRPRPRPSQWPRP,-0.171
14,RRIRFRPPRLPRPRPRPSSLPRP,-0.856
15,RRIRFRPPRLPRPRPRPSSVPRP,-0.503
16,RRIRFRPPRLPRPRPRPSTCPRP,-0.262
17,RRIRFRPPRLPRPRPRPSTSPRP,-0.0297
18,RRIRFRPPRLPRPRPRPSVPPRP,-0.0911
19,RRIRFRPPRLPRPRPRPSWFPRP,-0.403
20,RRIRFRPPRLPRPRPRPSWRPRP,0.167
21,RRIRFRPPRLPRPRPRPSWWPRP,0.212
22,RRIRFRPPRLPRPRPRPSYNPRP,-1.04
23,RRIRFRPPRLPRPRPRPTACPRP,-0.118
24,RRIRFRPPRLPRPRPRPTAGPRP,0.0761
25,RRIRFRPPRLPRPRPRPTCIPRP,-0.13
